# Data published in patent US20260242483A1.
# Columns and labels:
# [1] = molecular target: human BTN3A as expressed on human cells (PBMC, Daudi, tumour cell lines, HUVEC, HEK293T WT) (human); assay: flow cytometry on Daudi lymphoma cells
# [2] = molecular target: human BTN3A as expressed on human cells (PBMC, Daudi, tumour cell lines, HUVEC, HEK293T WT) (human); assay: cell-based or functional assay
# [3] = molecular target: cynomolgus BTN3A as expressed on cynomolgus PBMCs (cynomolgus monkey (Macaca fascicularis)); assay: flow cytometry on cynomolgus PBMCs
# [4] = molecular target: recombinant human BTN3A1-His (Sino Biological Cat. No. 15973-H08H) (human) (UniProt O00481); assay: SPR Biacore multi-cycle kinetics; antibody captured on Protein A, BTN3A1-His analyte, 1:1 fit
# [5] = molecular target: human BTN3A as expressed on human cells (PBMC, Daudi, tumour cell lines, HUVEC, HEK293T WT) (human); assay: flow cytometry on human PBMCs
# recombinant human BTN3A1-His (Sino Biological Cat. No. 15973-H08H) (human), sequence (O00481 30-254 limits assumed): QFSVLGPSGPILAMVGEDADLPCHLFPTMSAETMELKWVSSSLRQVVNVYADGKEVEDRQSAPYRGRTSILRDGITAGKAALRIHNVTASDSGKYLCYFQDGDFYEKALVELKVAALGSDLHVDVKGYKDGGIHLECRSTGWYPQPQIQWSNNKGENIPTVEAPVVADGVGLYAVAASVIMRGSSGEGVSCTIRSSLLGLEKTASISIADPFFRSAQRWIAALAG
substance,measurement,setting,value
"Chimeric 20.1 (VH0/Vκ0) IgG4 (S241P, L248E) (antibody)",EC50,[1],1.19 µg/mL
same,"Functional assay (AML resistant) (γδT cell-based, EC50, µg/mL)",[2],0.18 µg/mL
same,"Functional assay (AML sensitive) (γδT cell-based, EC50, µg/mL)",[2],0.05 µg/mL
same,"Functional assay (Daudi) (γδT cell-based, EC50, µg/mL)",[2],0.02 µg/mL
same,EC50,[3],4.06 µg/mL
same,Kd,[4],0.234 nM
same,EC50,[5],3.02 µg/mL
